Ten molecules from US20220218805A1 (UNIVERSITY OF BRITISH COLUMBIA, published 2022) can be followed below.

Ends that are not written are not given here.

Assay [1] has as its target T1, tau monomers (Stressmarq) (UniProt P10636-8 1-441, limits assumed).
T1 construct: also called monomeric tau polypeptide
Briefly: SPR, hybridoma supernatant over immobilized tau monomers. As to the method:
(§1) Antibodies were tested for their ability to bind monomeric tau polypeptide as well as misfolded oligomeric tau polypeptide using surface plasmon resonance. Surface plasmon resonance measurements were performed using a Molecular Affinity Screening System (Sierra Sensors, Hamburg, Germany). Tau monomers (Stressmarq, Victoria, BC, Canada) or tau oligomers (SynAging, Vandoeuvre-les-Nancy, France) were immobilized on high amine capacity sensorchips and hybridoma supernatants (50% dilution) were injected over the immobilized surfaces at 10 μl/minute for 4 min followed by a 5 min dissociation phase. Mouse IgG1 was used as a negative control and a pan-tau reactive antibody was used as a positive control. The reverse orientation was used for purified antibodies: the mAbs were immobilized covalently on the surface of sensorchips (8000-12000 RUs) and serial dilutions of tau monomers or oligomers were injected over the surface.
On the technique in general: In SPR one partner is held on a chip, and binding of the other changes the refractive index at the surface.

Assay [2] deals with T2, Linear CGGGKLDFGG (SEQ ID NO: 16) conjugated to BSA (also: conjugated to BSA).
T2 construct: Screening antigen of the ELISA; also called corresponding linear peptide (3,2); linear peptide-BSA
T2 peptide: CGGGKLDFGG
As to the kind of experiment: indirect ELISA, hybridoma supernatant on linear peptide-BSA. As to the method:
(§2) Tissue culture supernatants from the hybridomas were tested by indirect ELISA on screening antigen (cyclic peptide-BSA and linear peptide-BSA) and were probed for both IgG and IgM antibodies using a Goat anti-IgG/IgM(H&L)-HRP secondary antibody and developed with TMB substrate.
(In general: In an ELISA, binding on a coated surface is turned into a signal by an enzyme label.)

For assay [3], the target named is T3, (3,2) cyclo(CGGGKLDFGG) (SEQ ID NO: 16) conjugated to BSA (not fully specified (residue 1); printed as cyclo(CGGGKLDFGG); also: conjugated to BSA (maleimide coupling)).
T3 construct: Screening antigen of the ELISA; also called KLDF (3,2); cyclic peptide-BSA
T3 peptide: cyclo(CGGGKLDFGG)
As to the kind of experiment: indirect ELISA, hybridoma supernatant on cyclic peptide-BSA. As to the method:
as §2

Assay [4] deals with T4, tau oligomers (SynAging) (UniProt P10636-8 1-441, limits assumed).
T4 construct: also called misfolded oligomeric tau polypeptide
Briefly: SPR, hybridoma supernatant over immobilized tau oligomers. As to the method:
as §1

The target of assay [5] is T4, tau oligomers (SynAging). As to the kind of experiment: SPR, oligomer RU / monomer RU (reference: tau monomers). As to the method:
as §1

The target of assay [6] is T5, Linear CGGGGKLDFG (SEQ ID NO: 19) conjugated to BSA (also: conjugated to BSA).
T5 construct: Screening antigen of the ELISA; also called corresponding linear peptide (4,1); linear peptide-BSA
T5 peptide: CGGGGKLDFG
Briefly: indirect ELISA, hybridoma supernatant on linear peptide-BSA. As to the method: as §2

Assay [7] deals with T6, (4,1) cyclo(CGGGGKLDFG) (SEQ ID NO: 19) conjugated to BSA (not fully specified (residue 1); printed as cyclo(CGGGGKLDFG); also: conjugated to BSA (maleimide coupling)).
T6 construct: Screening antigen of the ELISA; also called KLDF (4,1); cyclic peptide-BSA
T6 peptide: cyclo(CGGGGKLDFG)
Briefly: indirect ELISA, hybridoma supernatant on cyclic peptide-BSA. As to the method: as §2

Assay [8] concerns the target T7, (3,1) cyclo(CGGGKLDFG) (SEQ ID NO: 15) conjugated to BSA (not fully specified (residue 1); printed as cyclo(CGGGKLDFG); also: conjugated to BSA (maleimide coupling)).
T7 construct: Screening antigen of the ELISA; also called KLDF (3,1); cyclic peptide-BSA
T7 peptide: cyclo(CGGGKLDFG)
Described as above. As to the method: as §2

The target in assay [9] is T6, (4,1) cyclo(CGGGGKLDFG) (SEQ ID NO: 19) …. As to the kind of experiment: indirect ELISA on other cyclic peptide-BSA conjugates.
Assay [10] has as its target T3, (3,2) cyclo(CGGGKLDFGG) (SEQ ID NO: 16) …. Described as above.
In assay [11] the target is T8, Linear CGGGKLDFG (SEQ ID NO: 15) conjugated to BSA (also: conjugated to BSA).
T8 construct: Screening antigen of the ELISA; also called corresponding linear peptide (3,1); linear peptide-BSA
T8 peptide: CGGGKLDFG
Briefly: indirect ELISA, hybridoma supernatant on linear peptide-BSA. As to the method: as §2

T1 sequence (P10636 other isoform, or with tags, fused parts or gaps limits assumed): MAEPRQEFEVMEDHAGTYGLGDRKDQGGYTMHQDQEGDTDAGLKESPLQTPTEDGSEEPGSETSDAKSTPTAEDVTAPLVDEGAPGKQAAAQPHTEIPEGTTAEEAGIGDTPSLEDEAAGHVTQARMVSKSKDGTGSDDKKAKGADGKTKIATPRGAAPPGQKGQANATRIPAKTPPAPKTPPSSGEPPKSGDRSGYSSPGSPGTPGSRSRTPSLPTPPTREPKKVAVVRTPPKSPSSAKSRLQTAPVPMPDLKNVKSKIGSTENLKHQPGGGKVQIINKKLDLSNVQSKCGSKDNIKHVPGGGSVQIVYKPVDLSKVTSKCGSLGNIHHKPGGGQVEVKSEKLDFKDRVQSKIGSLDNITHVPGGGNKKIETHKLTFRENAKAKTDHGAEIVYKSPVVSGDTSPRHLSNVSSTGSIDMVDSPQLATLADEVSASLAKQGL
T4 sequence (P10636 other isoform, or with tags, fused parts or gaps limits assumed): as above

B1: Ab15 (clone 10D9) (antibody, V domains shown)
VH: QVQLQQSGAELVKPGASVKLSCKASGYTFTSYYMFWVKQRPGQGLEWIGEINPSNGGSNFNEKFKSKATLTVDKSSSTAYMQLSSLTSEDSAVYYCTRGAFWGQGTLVTVSA
VL: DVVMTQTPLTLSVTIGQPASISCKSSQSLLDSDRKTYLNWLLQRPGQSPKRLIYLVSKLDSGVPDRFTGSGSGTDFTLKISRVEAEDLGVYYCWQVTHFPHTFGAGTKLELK
notes: tested as hybridoma supernatant; kappa light chain
Regarding B1, the “binding response (RU)” value in [1] turned out to be 3 RU; with tau oligomers (SynAging) [4], 10.9 RU. Besides, the OD in [2] was 0.774 OD; in assay [3] it was 1.58 OD. The “Ratio (O/M)” value in the assay with tau oligomers (SynAging) [5] came to 3.7.

B2: Ab3 (clone 2C7) (antibody, V domains shown)
VH: QVTLKESGPGILKPSQTLSLTCSFSGFSLSTSGMGVGWIRQPSGKGLEWLAHIWWDDDKYYNPSLKNRLTISKDTSRNQVFLKITSVDTADTATYYCVRSIYYYDSSPYYYVMDYWGQGTSVTVSS
VL: DIVMTQSHKFMSTSVGDRVSITCKASQDVSIAVAWYQQKPGQSPKLLIYSASYRNTGVPDRFTGSGSGTDFTFTISSVQAEDLAVYYCQQHYSSPLTFGAGTKLELK
notes: as for B1
B2: the “binding response (RU)” value in [1] came out at 201 RU; in the assay with tau oligomers (SynAging) [4] it was 269 RU. Also, the OD in assay [6] came to 1.61 OD; in assay [7] it was 1.79 OD. For the same molecule, the “Ratio (O/M)” value with tau oligomers (SynAging) [5] stood at 1.3.

B3: Ab11 (clone 9E4) (antibody, V domains shown)
VH: DVQVQESGPGLVKPSQSLSLTCTVTGYSITSDYAWTWIRQFPGNKLEWMGYISYSGSTSYNPSLKSRLSITRDTSKNQFFLQLNSVTTEDTATYYCAAYYRYGLAYFAYWGQGTLVTVSA
VL: not shown
notes: kappa light chain; The clone name 9E4 is also printed for Ab27; also called 9E4.1
For the molecule B3, the “binding response (RU)” value in assay [1] was 6.5 RU; with tau oligomers (SynAging) [4] it was 17 RU. The OD in assay [2] came out at 0.232 OD; in assay [3], 1.64 OD. Besides, the “Ratio (O/M)” value in the assay with tau oligomers (SynAging) [5] amounted to 2.6.

B4: Ab21 (clone 2C6) (antibody, V domains shown)
VH: EVQLQQSGAELVKPGASVKLSCTASGFNIKDTHMHWVKQRPEQGLEWIGKIDPSNGNTQYDPKFQGKATITADTSSNTAYLQLSSLTSEDTAVYYCATGFAYWGQGTLVTVSA
VL: DIQMTQSPASLSASVGETVTITCRASGNIHNYLAWYQQKQGKSPQLLVYNAKTLADGVPSRFSGSGSGTQYSLKINSLQPEDFGSYYCQHFWYTPWTFGGGTKLEIK
notes: tested as hybridoma supernatant; kappa light chain; also called 2C6.1
For B4, the “binding response (RU)” value in [1] was 3.5 RU; with tau oligomers (SynAging) [4] it was 6.6 RU. The OD in assay [8] was 1.21 OD. Besides, the “Ratio (O/M)” value with tau oligomers (SynAging) [5] is 1.9.

B5: Ab13 (clone 10C9) (antibody, V domains shown)
VH: EVQLQQSGTVLARPGASVKMSCKASGYRFTSYWMYWVKQRPGQGLEWIGAIYPGNSDTIYNQRFKGKATLTAVTSASTAYMELSSLANEDSAVYFCTRPYFDSWGQGTTLTVSS
VL: not shown
notes: as for B1
On to B5, for which the “binding response (RU)” value in assay [1] was found to be 4.8 RU; with tau oligomers (SynAging) [4], 14.7 RU. The molecule also showed an OD in assay [3] of 1.29 OD. The “Ratio (O/M)” value with tau oligomers (SynAging) [5] turned out to be 3.1.

B6: Ab29 (clone 12D11) (antibody, V domains shown)
VH: QIQLVQSGPELKKPGETVKISCKASGYTFTNYGMNWVKQAPGKGLKWMGWINTYSGEPTYVDDFKGRFAFSLETSASTAYLQINNLKNEDMATYFCARSPGAYYTLDYWGQGTSVTVSS
VL: DIVMSQSPSSLAVSAGEKVTMSCKSSQSLLNSRTRKNYLAWYQQKPGQSPKLLIYWASTRESGVPDRFTGSGSGTDFTLTISSVQAEDLAVYYCKQSYNLYTFGGGTKLEIK
notes: as for B1
On to B6, for which the figures for the “binding response (RU)” value (in assay [1]; in the assay with tau oligomers (SynAging) [4]) were 3 RU and 6.2 RU, respectively. For the same molecule, the binding result in [9] and in [10] was “no binding” in each case. The molecule also displayed an OD in [8] of 1.35 OD. Besides, the “Ratio (O/M)” value with tau oligomers (SynAging) [5] came out at 2.1.

B7: Ab23 (clone 8E11) (antibody, V domains shown)
VH: QVQLQQSGAELVRPGSSVKISCKASGYAFSSYWMNWVKQRPGQGLEWIGQIYPGDGDTNYNGKFKGKATLTADKSSSTAYMQLSSLTSEDSAVYLCASQIYDGYYTFTYWGQGTLVTVSA
VL: DIVMSQSPSSLAVSAGEKVTMSCKSSQSLLNSRTRKNYLAWYQQKPGQSPKLLIYWASTRVSGVPDRFTGSGSGTDFTLTISSVQAEDLAVYYCKQSYNLWTFGGGTKLEIK
notes: kappa light chain; also called 8E11.1
On to B7, for which the results for the “binding response (RU)” value (in assay [1]; in the assay with tau oligomers (SynAging) [4]) were 4.6 RU and 10.2 RU, respectively. Further, the OD in assay [11] was found to be 1.69 OD; in assay [8], 1.19 OD. Moreover, in the assay with tau oligomers (SynAging) [5], the “Ratio (O/M)” value is 2.2.

B8: Ab12 (clone 10B10) (antibody, V domains shown)
VH: QIQLVQSGPELKKPGETVKISCKASGYTFTNFGMNWVKQAPGKGLKWMGWINTFTGEPTYVDDFKGRFAFSLETSATTAYLQINNLKNEDTATYFCARSPGRVYTLDYWGQGTSVTVSS
VL: DIVMSQSPSSLAVSAGEKVTMSCKSSQSLLNSRTRKNYLAWYQQKPGQSPKLLIYWASTRESGVPDRFTGSGSGTDFTLTISSVQAEDLAVYYCKQSYNLYTFGGGTKLEIK
notes: tested as hybridoma supernatant; kappa light chain; also called 10B10.1
Consider B8, for which the “binding response (RU)” value in assay [1] turned out to be 5 RU; with tau oligomers (SynAging) [4], 14.5 RU. Moreover, the OD was found to be 0.784 OD in assay [2] and 1.74 OD in assay [3]. Further, the “Ratio (O/M)” value in the assay with tau oligomers (SynAging) [5] was determined as 2.9.

B9: Ab10 (clone 9D12) (antibody, V domains shown)
VH: QIQLVQSGPELKKPGETVKISCKASGYTFTNYGMNWVKQAPGKGLKWMGWINTYTGEPTYTDDFKGRFAFSLETSASTAYLQINNLKNEDTATYFCGRGIRDYYTMDYWGQGTSVTVSS
VL: DIVMSQSPSSLAVSAGEKVTMSCKSSQSLLNNRTRKNYLAWYQQKPGQSPKLLIYWASTRESGVPDRFTGSGSGTDFTLTISSVQAEDLAVYYCKQSYNLYTFGGGTKLEIK
notes: kappa light chain
For B9, the “binding response (RU)” value in assay [1] was found to be 5.2 RU; with tau oligomers (SynAging) [4] it was 14 RU. In addition, the figures for the OD in assay [2] and in [3] were 0.78 OD and 1.6 OD, respectively. The “Ratio (O/M)” value in the assay with tau oligomers (SynAging) [5] was determined as 2.7.

B10: Ab14 (clone 10D4) (antibody, V domains shown)
VH: DVQLQESGPGLVKPSQSLSLTCTVTGFSITSDYAWNWIRQFPGNKLEWMGFIRYSGNTRFNPSLKGRGSITRDTSKNQFFLQLNSVTTEDTATYYCASTLEDSYWYFDVWGAGTTVTVSS
VL: DVLMTQTPLSLPVSLGDQASISCRSSQSIVHTNGNTYLEWYLQKPGQSPKLLIYKVSNRFSGVPDRFSGSGSGTDFTLKISRVEAEDLGVYYCFQGSHVPLTFGAGTKLELK
notes: as for B1
Take B10: the “binding response (RU)” value was found to be 6.9 RU in assay [1] and 18 RU with tau oligomers (SynAging) [4]. Also, the OD was found to be 0.788 OD in assay [2] and 1.7 OD in assay [3]. For the same molecule, the “Ratio (O/M)” value in the assay with tau oligomers (SynAging) [5] came out at 2.6.
